PMC11260360 (Nature structural & molecular biology, 2023)

Molecular target: DENND10 (recombinant, pull-down) (human, UniProt Q8TCE6 1-357)
Assay: pull-down

Chain of DENND10 (recombinant, pull-down) (Q8TCE6 whole entry): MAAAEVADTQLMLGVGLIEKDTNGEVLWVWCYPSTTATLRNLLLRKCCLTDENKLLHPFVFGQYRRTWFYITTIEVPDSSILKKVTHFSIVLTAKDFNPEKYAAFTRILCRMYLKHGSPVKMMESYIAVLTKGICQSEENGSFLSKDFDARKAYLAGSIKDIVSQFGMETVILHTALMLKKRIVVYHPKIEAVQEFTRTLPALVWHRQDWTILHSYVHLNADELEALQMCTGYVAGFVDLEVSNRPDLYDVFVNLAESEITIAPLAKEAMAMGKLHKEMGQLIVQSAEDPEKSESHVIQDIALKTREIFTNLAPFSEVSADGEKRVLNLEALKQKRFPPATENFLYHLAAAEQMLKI

B1: MBP-tagged CCDC22-CCDC93 DBD (complex, human)
chain 1: GAGAKTGAPKGSRFTHSEKFTFHLEPQAQATQVSDVPATSRRPEQVTWAAQEQELESLREQLEGVNRSIEEVEADMKTLGVSFVQAESECRHSKLSTAEREQALRLKSRAVELLPDGTANLAKLQLVVENSAQRVIHLAGQWEKHRVPLLAEYRHLRKLQDCRELES
chain 2: SPEKLGTSQLHRRKVISLNKQIAQKTKHLEELRASHTSLQARYNEAKKTLTELKTYSEKLDKEQAALEKIESKADPSILQNLRALVAMNENLKSQEQEFKAHCREEMTRLQQEIENLKAERAPRGDEKT
B1: binds.

B2: MBP-tagged CCDC22-CCDC93 DBD, CCDC93 E410R (complex, human)
chain 1: GAGAKTGAPKGSRFTHSEKFTFHLEPQAQATQVSDVPATSRRPEQVTWAAQEQELESLREQLEGVNRSIEEVEADMKTLGVSFVQAESECRHSKLSTAEREQALRLKSRAVELLPDGTANLAKLQLVVENSAQRVIHLAGQWEKHRVPLLAEYRHLRKLQDCRELES
chain 2: SPEKLGTSQLHRRKVISLNKQIAQKTKHLEELRASHTSLQARYNEAKKTLTELKTYSEKLDKEQAALEKIESKADPSILQNLRALVAMNENLKSQEQEFKAHCRERMTRLQQEIENLKAERAPRGDEKT
B2: binds.
